Target: T1, PfMLC-B C-terminal domain (MLC-B CTD), residues 497-652 (Plasmodium falciparum, UniProt Q8III1 497-652)
T1 construct: Myosin light chain B (MLC-B), Plasmodium falciparum 3D7, PlasmoDB PF3D7_1118700; C-terminal 156 amino acids, residues 497-652 (3' 471 bp of mlc-b cDNA, primers 27 and 28); Cloned into BamHI/XhoI of pGEX6P1; a few vector residues may remain after PreScission cleavage; also called PfMLC-B CTD; calmodulin-like C-terminal domain; source: E. coli BL21 Gold, purified (glutathione-Sepharose, PreScission …)
T1 sequence: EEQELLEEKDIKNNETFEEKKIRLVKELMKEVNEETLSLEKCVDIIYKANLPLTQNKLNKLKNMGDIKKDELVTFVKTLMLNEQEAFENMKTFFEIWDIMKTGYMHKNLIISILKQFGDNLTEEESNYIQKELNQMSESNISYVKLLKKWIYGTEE
Test: thermal unfolding monitored by CD at 222 nm; MLC-B CTD alone or with 1.5- or 3-fold molar excess of peptide; heating 1 °C/min, 20-90 °C
Conditions: both partners purified

B1: Myosin B peptide Asn780 to His800 (peptide)
peptide: Ac-NIKNLQLAQAYFRKYKYIKEH-NH2
notes: Myosin B (MyoB), Plasmodium falciparum, residues 780-800; also called Asn780 to His800 peptide; peptide from the extreme C terminus of MyoB; source: synthetic peptide
- Tm of MLC-B CTD with a 1.5-fold molar excess of the peptide (59 °C without peptide): 67 °C
- Tm of MLC-B CTD with a 3-fold molar excess of the peptide (59 °C without peptide): 70 °C

Source: publication PMC4424349, “The Plasmodium Class XIV Myosin, MyoB, Has a Distinct Subcellular Location in Invasive and Motile Stages of the Malaria Parasite and an Unusual Light Chain*” (The Journal of Biological Chemistry, 2015)
